Source: publication PMC3663649 (2013)

How the values were obtained:
[1] = target: T1, H3KC36me3 nucleosomes (recombinant MLA nucleosomes reconstituted on 601 DNA) (Drosophila, UniProt P02299 1-136; P84040 1-103; P84051 1-124; P02283 1-123, H3KC36me3, cysteine at 36 alkylated to a thioether mimic of trimethyl-lysine (H3KC36me3)); assay: EMSA titration 1 (top)
[2] = target: T1, H3KC36me3 nucleosomes (recombinant MLA …); assay: EMSA titration 2 (bottom)

B1: GST-PWWP (PSIP1-PWWP domain, residues 3 to 100, GST fusion) (domain or fragment)
chain: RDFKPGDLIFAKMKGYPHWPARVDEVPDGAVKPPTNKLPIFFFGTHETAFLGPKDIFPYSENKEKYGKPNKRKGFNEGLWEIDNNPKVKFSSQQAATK
- Kd [1]: 400 nM
- Kd [2]: 600 nM
